From the RNAGym collection of RNA variant scans (doi:10.7554/elife.80360) come the findings set out here.

The labels stand for the following.
B1: HDV Ribozyme (parent)
chain: GGCCGGCAUGGUCCCAGCCUCCUCGCUGGCGCCGGCUGGGCAACAUUCCGAGGGGACCGUCCCCUCGGUAAUGGCGAAUGGGACCCA

This data set covers variants of B1. Description: self-cleavage, relative activity (ratio to wild type); higher = more cleavage; co-transcriptional.
For the variant G39C C63G, the self-cleavage came out at 0.0437.

For G39U G50C, the self-cleavage turned out to be 0.598.

As to C62U A83C, the self-cleavage came out at 0.359.

In the case of C41U A45U, the self-cleavage was 0.884.

Take C7G G73A: the self-cleavage was 0.0639.

Turning to G39U C84A, the self-cleavage was found to be 0.495.

Take C33G U79G: the self-cleavage was 0.0665.

Regarding C14A C48A, the self-cleavage worked out at 0.485.

For G11C C32G, the self-cleavage worked out at 0.0875.

As for C4U A56U, the self-cleavage turned out to be 0.898.

Take C26U G68A: the self-cleavage is 1.02.

As for U12C C58A, the self-cleavage came to 0.475.

For the variant G73U C75U, the self-cleavage was 0.111.

With C18U A83G, the self-cleavage turned out to be 0.356.

Turning to G52A C58A, the self-cleavage turned out to be 1.14.

As for G74C C84U, the self-cleavage is 0.196.

For G6U U72C, the self-cleavage was 0.

With A8C C61A, the self-cleavage was determined as 0.931.

For C4A U20G, the self-cleavage came out at 0.

With C19U G54U, the self-cleavage amounted to 0.174.

For the variant C19A U65C, the self-cleavage is 0.155.

Regarding U27C C57A, the self-cleavage came to 0.692.

For the variant C4U C44A, the self-cleavage was 0.578.

In the case of G17A U69A, the self-cleavage was determined as 0.731.

Regarding U9G G81A, the self-cleavage was found to be 0.8.

Take U37C A51G: the self-cleavage was determined as 0.966.

G1A C58U: the self-cleavage worked out at 0.158.

C18U G76C: the self-cleavage turned out to be 0.978.

With G39A G54C, the self-cleavage was determined as 0.369.

As for C7G U23C, the self-cleavage was found to be 0.

On to A70U A71U, for which the self-cleavage came out at 0.98.

Turning to C7U G81C, the self-cleavage worked out at 0.383.

On to C49A G55U, for which the self-cleavage turned out to be 1.18.

Consider C15A G31U, for which the self-cleavage turned out to be 0.0339.

Turning to G6A, the self-cleavage is 0.726.

For the variant C44U A45G, the self-cleavage came out at 0.739.

For C33U G34U, the self-cleavage was found to be 0.219.

Turning to U20A C84A, the self-cleavage came out at 0.208.

Take C7U U47C: the self-cleavage came to 0.482.

Regarding C41A C58G, the self-cleavage was 0.935.

Consider U20G G82A, for which the self-cleavage stood at 0.123.

For the variant G81U A83G, the self-cleavage amounted to 0.152.

For the variant G68U G74A, the self-cleavage came to 0.328.

Consider C14G G29U, for which the self-cleavage came out at 0.0396.

Take C58U A87G: the self-cleavage was 0.876.

For G2C C7U, the self-cleavage was found to be 0.089.

For the variant U60A A83U, the self-cleavage was found to be 0.356.

Turning to C7G C22U, the self-cleavage came out at 0.0898.

With A78C G80C, the self-cleavage came to 0.0514.

A16G C66U: the self-cleavage amounted to 0.988.

On to C48A A78C, for which the self-cleavage was 0.169.

In the case of G31C C49G, the self-cleavage was determined as 0.253.

For C4A A51G, the self-cleavage amounted to 0.502.

As to G28A C63U, the self-cleavage turned out to be 0.107.

As for C32A A42C, the self-cleavage was 0.162.

On to G38U G68C, for which the self-cleavage was 0.245.

For the variant A8U G67A, the self-cleavage worked out at 0.855.

As for U9C G54U, the self-cleavage was found to be 0.937.

In the case of C14U U72A, the self-cleavage amounted to 0.745.

For the variant G6A G34U, the self-cleavage amounted to 0.

Take G35C C85G: the self-cleavage turned out to be 0.0923.

On to U60A U69C, for which the self-cleavage is 1.08.

Regarding U69A G82A, the self-cleavage is 0.233.

With C7U G74U, the self-cleavage was 0.202.

Take C18U G29U: the self-cleavage amounted to 0.0639.

As for G39C A42C, the self-cleavage was 0.244.

Consider C85G, for which the self-cleavage worked out at 0.948.

As for G25A U27A, the self-cleavage turned out to be 0.161.

As for G29U U47C, the self-cleavage came out at 0.19.

As to C44A A71C, the self-cleavage is 0.332.

In the case of A43C C44A, the self-cleavage turned out to be 0.665.

Take C49A A51G: the self-cleavage was 0.748.

For C13G U27C, the self-cleavage came to 0.262.

For G1A A71U, the self-cleavage was determined as 0.256.

As to U9A G76U, the self-cleavage was 1.02.

Regarding C19A G54C, the self-cleavage stood at 0.0817.

For C36A G55C, the self-cleavage came out at 0.196.

In the case of G17A G52C, the self-cleavage worked out at 0.923.

As for A42G A70G, the self-cleavage is 0.623.

In the case of C3A A56U, the self-cleavage stood at 0.71.

Turning to U60A G82A, the self-cleavage was found to be 0.373.

On to G31A U37A, for which the self-cleavage came out at 0.128.

Regarding A16G C84A, the self-cleavage turned out to be 0.7.

Consider C18U U65G, for which the self-cleavage stood at 0.554.

With C22A A78U, the self-cleavage is 0.

As for G5U G39A, the self-cleavage is 0.217.

As to C61A G76U, the self-cleavage worked out at 1.05.

Turning to C44G A45C, the self-cleavage was found to be 0.578.

In the case of G35U G38C, the self-cleavage stood at 0.0536.

Consider C13U C66A, for which the self-cleavage was 0.54.

With C19A C63A, the self-cleavage stood at 0.153.

Turning to G40C C66G, the self-cleavage was determined as 0.253.

C18A A42G: the self-cleavage amounted to 0.102.

For U37A, the self-cleavage came to 0.216.

In the case of G6U G80C, the self-cleavage is 0.0898.

With A45G U69A, the self-cleavage was 0.895.

In the case of G5U C61G, the self-cleavage turned out to be 0.262.

Take C66A U79C: the self-cleavage came out at 0.582.

A45G A71G: the self-cleavage was found to be 0.831.

Regarding G6U C66U, the self-cleavage stood at 0.645.

As for C3A A42C, the self-cleavage is 0.162.

As to C36G A77C, the self-cleavage is 0.

Turning to C15A C86G, the self-cleavage is 0.748.

As for U23C G80U, the self-cleavage is 0.16.

On to G25C G40U, for which the self-cleavage was 0.0563.

Take U23C G74U: the self-cleavage was 0.554.

For C66U U79C, the self-cleavage worked out at 0.571.

Consider C4U U60G, for which the self-cleavage was 0.939.

For U37A A83C, the self-cleavage was 0.0378.

For the variant C15G C58A, the self-cleavage is 0.437.

A43U G52C: the self-cleavage came to 0.743.

Turning to G38C U47C, the self-cleavage was determined as 0.161.

With G38U G50U, the self-cleavage was determined as 0.352.

Take C63A A78C: the self-cleavage came out at 0.108.

For G6C U47A, the self-cleavage turned out to be 0.0875.

For A8G G28C, the self-cleavage worked out at 0.

For the variant G34A G81C, the self-cleavage was found to be 0.0733.

Consider G1C G35U, for which the self-cleavage is 0.155.

As for U9A G55U, the self-cleavage was 0.895.

As for G53A G68A, the self-cleavage turned out to be 0.743.

For G28A G52C, the self-cleavage came to 0.0773.

C14U C22U: the self-cleavage stood at 0.935.

As to G38U A56G, the self-cleavage came to 0.193.

As to C61G C64U, the self-cleavage was determined as 0.755.

In the case of U12A G59A, the self-cleavage stood at 0.172.

Take A56G G73A: the self-cleavage came to 0.749.

C22A C63U: the self-cleavage was determined as 0.157.

Take U65G U69C: the self-cleavage is 0.877.

Regarding C48G U69G, the self-cleavage is 0.712.

In the case of G2A U60G, the self-cleavage was determined as 0.314.

With A8G G59U, the self-cleavage is 0.914.

Consider C30U C75U, for which the self-cleavage was found to be 0.157.

In the case of U9A C86G, the self-cleavage stood at 1.04.

On to C24U G39A, for which the self-cleavage was 0.257.

With G11C C36U, the self-cleavage amounted to 0.136.

For G25C U47C, the self-cleavage turned out to be 0.

As to C33G C86U, the self-cleavage is 0.214.

In the case of U27A C62A, the self-cleavage came out at 0.872.

For the variant G40C U46C, the self-cleavage amounted to 0.117.

Regarding C14G G74U, the self-cleavage was found to be 0.128.

In the case of U37C U65G, the self-cleavage is 0.906.

In the case of G11A G39A, the self-cleavage came out at 0.0936.

As for U20A G74C, the self-cleavage was 0.0396.

For U12A G54U, the self-cleavage stood at 0.415.

Take C7A C33G: the self-cleavage stood at 0.0519.

For A16U C19A, the self-cleavage was determined as 0.285.

In the case of G38C C44U, the self-cleavage was found to be 0.104.

C33U G76U: the self-cleavage worked out at 1.02.

Take G1A C18U: the self-cleavage stood at 0.0475.

In the case of G1A G40A, the self-cleavage came to 0.119.

For the variant G2U C36A, the self-cleavage came to 0.366.

For A51U U60C, the self-cleavage was 0.594.

Regarding G2C C36G, the self-cleavage came out at 0.26.

As for A16U G39A, the self-cleavage came to 0.32.

With A16U A45U, the self-cleavage was found to be 0.831.

As for A56G G68C, the self-cleavage amounted to 1.01.

With G10U C58G, the self-cleavage was found to be 0.793.

As for C7A G11A, the self-cleavage was 0.0674.

Take G40A U65A: the self-cleavage was 0.914.

In the case of C14G G53C, the self-cleavage was 0.727.

Take C22A C75U: the self-cleavage was determined as 0.128.

As for U47C G54U, the self-cleavage came out at 1.14.

Take C7U C36G: the self-cleavage worked out at 0.104.

In the case of C30U C63U, the self-cleavage is 0.581.

Turning to G1C A45C, the self-cleavage turned out to be 0.145.

Turning to U37A G50A, the self-cleavage turned out to be 0.0361.

For the variant G1U C57G, the self-cleavage was determined as 0.196.
